From patent US20190324040A1

Key:
[1] = molecular target: Zika virus (ZIKV), whole virus particles (Zika virus); experiment: virus capture ELISA
[2] = molecular target: Zika virus (ZIKV), whole virus particles (Zika virus); experiment: cell-based or functional assay

B1: CC4 mAb (P1604) (antibody, V domains shown)
VH: VQLVQESGPGPVKPSETLSLTCTVSGGSISSYYWSWIRQPAGKGLEWIGRIYTSGSTNYNPSLKSRVTMSVDTSKNQFSLKLSSVTAADTAVYYCARESGSLYMDVWGKGTAVTVSS
VL: DVVMTQSPATLSLPPGERATLSCRASQSVSSYLAWYQQKPGQAPRLLIYDASNRATGIPARFSGSGSGTDFTLTISSLEPEDFAVYYCQQRSNWPLTFGGGTKVDIK
In the case of B1, the ZIKV binding Abs 450 nm [1] is reported as 0.87 Abs 450 nm and the % of Zika virus Neutralized (Vero infectivity assay), antibody at 4 µg/ml [2] is reported as 19.3%.
